The data set can be described thus: label from the status in PepcDB records.

As to “MRGLAVLVLLVFAVQVAAAEDFRPVVFVHGLAGSAGQFESQGMRFAANGYPAEYVKTFEYDTISWALVVETDMLFSGLGSEFGLNISQIIDPETLDKILSKSRERLIDETFSRLDRVIDEALAESGADKVDLVGHSMGTFFLVRYVNSSPERAAKVAHLILLDGVWGVDAPEGIPTLAVFGNPKALPALGLPEEKVVYNATNVYFNNMTHVQLCTSPETFAVMFEFINGYKPATTDIVPQDGDYVKVKGKFLAFATNGDVSGWLSIYPIDENGKRLTRLPVKFMRVKGDFEVRLRKGQLYEFQFRKDFSPIIYHYYRAPFVRDDLWARFLVSKPPLDVELLILPERLSPAAKETSGLLLIRYKEMIGEYDEEIGGVDEVYVNGVNVCTERICPIERAVNGLWVFDRGADGKSDLDREVVRYSIMPFMSAADLVVPAEGTISIAVKSRTGGEESFTIPAWSADRHSIIVQFSDYI”, the protein production result is reported as “failed”.
Turning to “MRGLKTFSILGLIVALLLVAACGNTDNSSKKESSTKDTISVKDENGTVKVPKDAKRIVVLEYSFADALAALDVKPVGIADDGKKKRIIKPVREKIGDYTSVGTRKQPNLEEISKLKPDLIIADSSRHKGINKELNKIAPTLSLKSFDGDYKQNINSFKTIAKALNKEKEGEKRLAEHDKLINKYKDEIKFDRNQKVLPAVVAKAGLLAHPNYSYVGQFLNELGFKNALSDDVTKGLSKYLKGPYLQLDTEHLADLNPERMIIMTDHAKKDSAEFKKLQEDATWKKLNAVKNNRVDIVDRDVWARSRGLISSEEMAKELVELSKKEQK”, the protein production entry is “failed”.
“MRGLSRRVQAMKPSATVAVNAKALELRRQGVDLVALTAGEPDFDTPEHVKEAARRALAQGKTKYAPPAGIPELREALAEKFRRENGLSVTPEETIVTVGGKQALFNLFQAILDPGDEVIVLSPYWVSYPEMVRFAGGVVVEVETLPEEGFVPDPERVRRAITPRTKALVVNSPNNPTGAVYPKEVLEALARLAVEHDFYLVSDEIYEHLLYEGEHFSPGRVAPEHTLTVNGAAKAFAMTGWRIGYACGPKEVIKAMASVSSQSTTSPDTIAQWATLEALTNQEASRAFVEMAREAYRRRRDLLLEGLTALGLKAVRPSGAFYVLMDTSPIAPDEVRAAERLLEAGVAVVPGTDFAAFGHVRLSYATSEENLRKALERFARVLGRA”: the protein production result was “not failed”.
With “MRGPAEQPPVTAISADATDADAAWRIMEQTRPDVVIMNAGAEPPMERIDRIGWEAFTTNWNVDVKAALHWVQAALTVPMAPGGLVVLISSGAAVQGSPLSGGYAGAKRAQWFIAKYADGLSAELGLGLRFRVLVPRQMFVGTGVGDTGIGAYAAKAGRTFAEQAATWPNMTPRAFGDTVAELIGKSGLAEAMVYAVRGDTGVTVIE” the entry was “failed”; with “MRGPAVLLTVALATLLAPGAGAPVQSQGSQNKLLLVSFDGFRWNYDQDVDTPNLDAMARDGVKARYMTPAFVTMTSPCHFTLVTGKYIENHGVVHNMYYNTTSKVKLPYHATLGIQRWWDNGSVPIWITAQRQGLRAGSFFYPGGNVTYQGVAVTRSRKEGIAHNYKNETEWRANIDTVMAWFTEEDLDLVTLYFGEPDSTGHRYGPESPERREMVRQVDRTVGYLRESIARNHLTDRLNLIITSDHGMTTVDKRAGDLVEFHKFPNFTFRDIEFELLDYGPNGMLLPKEGRLEKVYDALKDAHPKLHVYKKEAFPEAFHYANNPRVTPLLMYSDLGYVIHGRINVQFNNGEHGFDNKDMDMKTIFRAVGPSFRAGLEVEPFESVHVYELMCRLLGIVPEANDGHLATLLPMLHTESALPPDGRPTLLPKGRSALPPSSRPLLVMGLLGTVILLSEVA”, “failed”; with “MRGRIMSTFTTISSDKLARLIGTANAPVLIDVRTEEDFAADRRLIPGSIRLSHENVPDWGAAFAGRSVIVSCLRGAKLAQGTAAWLRQLGVQAETLDGGFEGWKEAKLPLLDTRKLPPRDAKGRTVWVTRARPKVDRIACPWLIRRFVDPNAVFLYVAPSEVVAVGERFNAAPFDIENVFWSHRGELCTFDVMIEEFGIATPALLRLATLVRGADTARPDLAPEAPGLLAASLGLSRMYDDDLEQLEAGLLLYDAFYRWCRDATAETHNWPTNKVKA”, “failed”.
With “MRGTTDEEDGVMNFSDVLMMSDDVLSSGEVEEDSFGFRFTGNDAPQMLCFGGGNQNDTDLLFSQPSFSPASPLSSRNNACVVNDQSFRSNKKTGSADGHDRVCDPKPGKRCKRDQKKSSLGNAKDDEDTGEVNPTMKVKELRSNGLCLVPLAWTVHVANTNGADLWSSAILSPLTSHTNSEPVEIVEVKSHKDK” the entry was “failed”; with “MRGVRLLAVIGLVLGGLVLSGRPAQAQYAQDSLAFDLEHVFDLEYAADPQISPSGDRVVYARTVMDKMDDRRASRLWAVNADGSGHRPITAPETNASQPRWSPSGDRVAYVASTEGDGAEVFVRWMDTGQTARITQLEESPSGLSWGPEGDRLAFSMFVPAEPEPFARMPSPPEGADWAERPDVIDQTYYRSDGGGYTERGHTQLFVVSASGGTPRQITTGPYDHGGAPTWTPDGETLLISANRHADRRLDPLNTEVYAVDVASGAVTALTTRQGPDGDVALSPDGSTIAYTGFDDREQGYQVTKLYVMDRDGTNARLLTEGFDRDVQNPTFTADGEHIVFRYVDEGSTKIGRVALDGGRRVVAEHVGGTSIGRPYTSGSFSLASNGRVAFTHATPQRPADVAVAQAGREAQVLTALNDDLFGQVDLGSVEQITYESSHDGRTIEGWIVTPPGFDASQEYPLVLEIHGGPFASYGPYFSAEVQLYAAAGYVVLYTNPRGSTSYGQDFGNAIHHDYPGHDYDDLMSGVDAVLERGYVDADRLYVTGGSGGGVLTSWIVGHTDRFRAAVAAKPVINWYSWALTADMYPYGVKYWFPGLPWNHEEHYMDRSPLSYVDNVTTPTMLLTGANDYRTPMSESEQFYQALKLREVETALVRVPGASHSIAARPSHLAAKAAHVLEWFRRHGGPTPEQ”, “failed”.
For “MRGVYRVMVKVYIENYGCARNRADGEIMAALLYLSGHEIVESPEESEIVVVNSCAVKDPTERKIARRIRELLDNGKKVIVTGCLPHVNPDVIDERVSAILGVKSIDRIVQAVEYAMRGEKLISVPDWKKRNLDKLDFPRLSPRNVYFILPIAEGCLNACTYCATRLARGVLKSYSPEKIIGWVKWAIKQGYKEIWLSAEDTGCYGFDIGTNLAKLIDEITAIEGEFRIRVGMMNPNHVLKFLDELIDAYKDEKVYKFLHLPVQSGDNEILRKMGRMYTVEEFEEIVKAFRREFPELNLHTDIIVGFPGESEEAFQRSVELIKRIRPDKVNVSRYSPRPGTIAAKWKQLPGWVVKERSRLLHRIRLQISYEINRKYIGKKVKVLIHGEGKKGNVDAVTMNYKHIILPEGRKGEFREARVKNAASTYLLGEIIT”, the protein production entry is on record as “failed”.
For the sequence “MRHFRVFLRKPKRITSAAQPLETGSSGLHFSAVNPRQAPASFFPSLRRFTVRLTAARQDQLVSYFFTCFKGVSMSQSVMKKSVLRILPGLLCLALPLSSCSSSKSPKATMTATPVELRYREATEKIAKRKYNDAIVILESLMFSTRATALEDDVLKALADSYYKKKEYILAADTYRRLLQQTPDSPYARDAQFMLAKSYEKLSPFHELDQEYTVKAINEFETYLDQYPSDDSAQAANDLELYKNLMKVNPDNASYREKYEAAKEELASGSPARYSQKAISELRERLAHNRFSIARQYFKLKKYRAAEIFYDVVINQYPDTKWLESAWIGKIDSEIKQNNWFEARQSIETFQQLYPDKAKLIEPAAKRVTAHYSNKRDPKSKE”, the protein production entry is recorded as “failed”.
For the sequence “MRHPYVFPACVAGALLVAGCAPKQTDEETVERAFQDVNVVDETNLSEVMLTVTDPNEAISYYQRTLKSDPDRLDLRRGLATSFVRAKRFTEAASAWEKVTELKDSTHEDSVNYADALIRSGDWDTAEKVLDTVPPTYETFKRYRLEAMMADANKEWRKADSFYETAIGLTTTPAGAFNNWGYSKLTRGDFSGAEKLFGQAIRQDPTLFTAKNNLVLARSAQRKYTLPVVPMTQSERAQLLHTMALSAVRQGDIQTSKSLLRDAIDTHPQHFDAAVRALEALERSG”, the protein production result is listed as “failed”.
Consider “MRICLFLCLCLCMASPALAQVAVFPALSGKTDAQTLVVYSSLDEPLATPMIEGFQKANPDIAVHYEDMLTGEIYDRIVKETDAGKKTADFAFSSAMDLQVKLSNDGYAQRSDLAMSARWPAWANWRNTAYALTFEPAVFVYHKPSFTTEKPPATRAEFVDYLERHAKEVHGRIATYDIERSGVGFLFMSRDQEQFGDIWSVIKAMGAAGVKVYSTSSAILERVSDGRFVLGYNILGSYAADWASRHPDVGIVLPKDYTVVMSRIGLVPEAAANPELGRRYLEFFMSKEGQTIMARQLQIPAVSPEVAGENTANTMQAIHGAQLRPVPVSPGLMVYLDQVKRSRLIERWNEALRSQ”, for which the protein production entry is “failed”.
“MRIDVESQNINVTSLKEAPIHLSGQIQPHGVLLVLEEPGLKILQVSNNTWGILGINAENILQKKLEDLLDSFQIERIQSGLSSGNLEFINPTKIWIRKKGDDYAVFDAVFHRNTEGFLILELEPAITQENIPFLSFYHLAKASINQLQKTANLRDFCQIIVQEVRKVTDFDRVMLYKFDDDGHGSVIAEEKLDSLEPYLGLHYPESDIPKPARKLFISNSIRVIPNAQAQAIQMIPALNPVSDRPVDLTNSILRSAANCHLEYLHNMGVGASLTISLIKDNKLWGLIACHHLSAKYVSYELRKACEFLGRVIFAEISAREETEDYDYRMNLTHIQSLLVEYMSQEDNFVDGLIKHQPSLLDLTSAQGAAVCFGDHCTLIGETPKAEDLVFLVQWLKNNVEEEVFYTDSLPQVYPDAERYKNVASGLLAIPISQRNYVLWFRPEVIQTVNWGGDPNQPFEVNKLDGNVRLCPRKSFELWKETVRLTSLPWRYVEIRAALELRKAIVNIVLRQADELAQLAHDLERSNAELKKFAYVASHDLQEPLNQVANYVQLLEMRYQDQLDADANEFITFAVEGVSLMQTLIDDVLAYSKVDTQAIAFQLTEVEKALDKALGNLRQRIAETGANITHDPLPTVMAGSTQLMQLFQNLIANAIKFRSEEAPQIHIGAERLEDEWLFSVRDNGIGIDPQFSDRIFVIFQRLHTRDEYHGTGMGLAICKKIIECHRGRIWVESQLGEGATFYFTIPVGGRERERRNGRKTQNNLFS”: the protein production result was “failed”.
For “MRIFKLSPDEEERFFDNLPRFLFYYLFLFTIFWFGLTQKSAEEIRESILSGNVSPDFWRSTLVVLLLLAITDAYLMRKGDTNWNTPGAALFMLFGFFIMLLVVMYVGRASILFVVSLFLIYINTLIKTKEELRKKNH” the value was “failed”.
“MRIGGTTSPIASHSFYVATRGYMDKTQSEEKNRRPLAVRDLNFTKRIAVWLSQKQITPNQISLMSIAFALLGCAILAVYHYYPAPLWLILAALSIQARLLCNLFDGMVAVEGGKKTPAGELFNDVPDRIADPLLILGAGFVTTSALGMTLAWLCALLAVLTAYIRVLGVSIGGEADFQGPMAKQHRMALLTLSLLFIAALSLFDELPTFFAYTMDLTLIVMLIGLVLTVWRRLQHIYQFHAARASSSDHQGN”: the protein production entry was “failed”.
